# Results published in publication PMC10653379.
# Molecular target: eIF3a-HA (Trypanosoma brucei (endogenous in procyclic form strain 29-13))
# Assay: proximity ligation
substance,measurement,value
DRBD18 (natural protein),PLA dots per cell (dots per cell),8
